# Results as given in IntAct's records for PubMed 18923418.
# B1: Ras GTPase-activating-like protein IQG1 (Candida albicans (strain SC5314 / ATCC MYA-2876)), Q5AH02 (parent)
# chain: MAIGNIAARYLSSLEETDTTATTTTTTTSNVLQPSNRLNSPTKFNRKSLDNNSQDLDALARALNITPSKPETPTSISKGSATSLLRTKFESPSATVSSFKSTSSSNGVSPTKKNHFVEITSDETPSWANKNYKDILNKSPTKFNTQSNVHTPLKQLNQPIGTPSSSSLSPAKNASKSSPGYEYLCRIEAIKQWLESVLQEQITQSASQLISYIRNGIHLAKLANVVLPTSKPVFLNDSKLQFKHTENINRFFQLLDFFNMPDLFRFELTDLYDAKNVPKVWFCLHALSYILHKQDPSYPAMNNLVGKVDFSADDIRTANRALVNSPLPNFSSADTGEGKSDTSNNNSSTTSATAAFMDKVTSPVKKTPSPLKRPQQLQKKQLELVEDNKPELTQDSSGLSKISRDDPFTDRVDLAPPSTSNAKLELHTPPSKSLEFKIKSPIIDLSHRDSDYYTPELESHLPNIIKFQSLARGAVFRYLMFVDRILLKSYQDEFTNLFAIIRGNKARRKTVHKHRDELRLYSFEIIELQSIIRKNFVINKKPNFTSITNDVETVELQSLIRGKLTRDWKKYVTNGLEKFTPQIIDFQSLVRMKSIYSKSNKVISYKDEILPSLIELQSIARSQLYHRFSRSNAIDETEIIKIQSIIRRNAVIEDLYTKLSKVRSNKRRLIELQSIARGGVARTKLCNSVLVTLIYEDGILNQLFAKIRGDNYRKKFNSQKSELLKYEKSSIIPVQTLFRGVLSRYTKEVTLSDIFDQIDSVITLQSVARGKLMRGSIYEFSDYYQKHIKQVVKAQAILQRVFAQNAYKQLITSKNPPLKVIRRFAPLLSNNDRDFQDEMTLSDLKDLIIEKCKANEEYENQIEQLDMKLGLLDKNKISIEEFLKPTKGKTFKPIVENVKNLERLNKSLKKKIELWQTLFYFIQTNPIYLTKLFNSIPYTKNQTKSGQDLFQSVIQLFPVRDSSITYHSREEYFLVKLMIQLMQNDTANSNNLGDITKLHLTNWIDFFTNFNNHTFQRQHLKALLGKFVIRIVDNEQVDFESDPIRIYNQIIDHEMKVYGRSEKSRDISPQAAIQLPEVSNKFVGNLMSLRETCSDLLSMLQKNASGNKALLQIPDHVKLICRQGYLCAQRKFPDKSDQQHLAVAGVIFVKHYLGSILQVPENYGILTGNNDTQKAKSKDNLRYLYRVMLQLFSMKPFNDNFLKPLNEYIMASTDTVKSIISQAIINVGEIETVYELHDYDDLVTHQRPKLTISVNSLIQLEKSILQNVDIITTGNDDQLYKTCVEVEKLLISPQDMLTLTDLSSVTLNLNPTTQEESIVDSKTKTLFTQAKRCLLYIIRVQEEDDSDDLLELLISGIKPSHEQRFKEIVQYEKAEQDISLNNSKSVTANTVNKKKSTRPYSGTSLGDLSNLTYHELKKMCLEIILKLESMGELTRKNSFQTLLNQIAMDIKTKDSQRQCRWQQLQVSQKTIKKLSEKENYLKTQLHNYKKHVESVLLELQSKSKSNDKNWKRRLFNIMVIPVFSKQYFYHRELRKHNRLPKFGSYKYSAKKLIDQKVLIDFSTANNVATASKLDFMFSCHQVGKFTIEVASGTVNIPGATNTITLDELLALQYENKTKFELFDGMATFDSNNFMGLIFRKFYDLKKE
# partner: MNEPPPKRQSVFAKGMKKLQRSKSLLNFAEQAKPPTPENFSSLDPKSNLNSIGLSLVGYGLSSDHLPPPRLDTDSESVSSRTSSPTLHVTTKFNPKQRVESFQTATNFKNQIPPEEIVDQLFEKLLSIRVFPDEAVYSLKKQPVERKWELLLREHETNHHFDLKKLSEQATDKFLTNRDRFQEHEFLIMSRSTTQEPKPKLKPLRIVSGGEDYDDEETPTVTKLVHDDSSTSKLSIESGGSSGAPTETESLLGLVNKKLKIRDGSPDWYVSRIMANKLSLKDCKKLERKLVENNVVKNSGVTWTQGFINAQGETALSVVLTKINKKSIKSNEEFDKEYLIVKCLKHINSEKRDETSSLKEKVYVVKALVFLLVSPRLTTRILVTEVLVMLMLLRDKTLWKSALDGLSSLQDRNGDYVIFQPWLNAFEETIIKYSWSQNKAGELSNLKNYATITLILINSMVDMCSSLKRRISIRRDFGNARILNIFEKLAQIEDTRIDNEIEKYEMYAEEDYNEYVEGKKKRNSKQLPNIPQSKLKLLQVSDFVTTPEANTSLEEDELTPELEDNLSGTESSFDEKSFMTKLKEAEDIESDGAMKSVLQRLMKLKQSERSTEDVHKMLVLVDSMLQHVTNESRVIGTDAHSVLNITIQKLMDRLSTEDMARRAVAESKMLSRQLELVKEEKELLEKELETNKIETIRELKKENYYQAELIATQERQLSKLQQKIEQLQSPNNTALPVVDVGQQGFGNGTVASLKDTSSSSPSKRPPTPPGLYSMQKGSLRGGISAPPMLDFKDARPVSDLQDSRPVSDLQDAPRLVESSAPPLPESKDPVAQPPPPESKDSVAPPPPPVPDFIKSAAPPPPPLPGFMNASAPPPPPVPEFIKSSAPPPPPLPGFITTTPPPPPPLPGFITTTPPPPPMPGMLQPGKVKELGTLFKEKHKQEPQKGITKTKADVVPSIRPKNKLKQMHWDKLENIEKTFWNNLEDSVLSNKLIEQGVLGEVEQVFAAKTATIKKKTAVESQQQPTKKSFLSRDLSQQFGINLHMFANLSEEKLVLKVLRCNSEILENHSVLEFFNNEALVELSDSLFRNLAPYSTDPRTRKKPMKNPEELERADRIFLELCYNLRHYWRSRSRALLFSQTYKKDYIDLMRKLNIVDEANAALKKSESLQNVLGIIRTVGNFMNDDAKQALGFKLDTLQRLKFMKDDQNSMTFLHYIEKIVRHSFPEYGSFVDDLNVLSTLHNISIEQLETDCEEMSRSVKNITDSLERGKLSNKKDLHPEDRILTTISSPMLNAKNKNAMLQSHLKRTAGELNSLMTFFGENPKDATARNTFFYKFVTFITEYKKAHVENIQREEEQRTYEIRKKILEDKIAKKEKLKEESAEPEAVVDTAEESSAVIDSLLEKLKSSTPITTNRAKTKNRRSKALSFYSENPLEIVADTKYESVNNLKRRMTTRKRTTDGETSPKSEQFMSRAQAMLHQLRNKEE
# B2: Ras GTPase-activating-like protein IQG1 (Candida albicans (strain SC5314 / ATCC MYA-2876)), Q5AH02 (parent)
# chain: B1 chain
# Variants of: B1
# Details: with bnr1_canal BNR1, Q5AAF4
row,Variant,effect of a mutation on the interaction
1,E15A,disrupting interaction

# Variants of: B2
# Details: with bni1_canal BNI1, Q5AL52
# Chain of bni1_canal BNI1, Q5AL52 (Q5AL52 whole entry): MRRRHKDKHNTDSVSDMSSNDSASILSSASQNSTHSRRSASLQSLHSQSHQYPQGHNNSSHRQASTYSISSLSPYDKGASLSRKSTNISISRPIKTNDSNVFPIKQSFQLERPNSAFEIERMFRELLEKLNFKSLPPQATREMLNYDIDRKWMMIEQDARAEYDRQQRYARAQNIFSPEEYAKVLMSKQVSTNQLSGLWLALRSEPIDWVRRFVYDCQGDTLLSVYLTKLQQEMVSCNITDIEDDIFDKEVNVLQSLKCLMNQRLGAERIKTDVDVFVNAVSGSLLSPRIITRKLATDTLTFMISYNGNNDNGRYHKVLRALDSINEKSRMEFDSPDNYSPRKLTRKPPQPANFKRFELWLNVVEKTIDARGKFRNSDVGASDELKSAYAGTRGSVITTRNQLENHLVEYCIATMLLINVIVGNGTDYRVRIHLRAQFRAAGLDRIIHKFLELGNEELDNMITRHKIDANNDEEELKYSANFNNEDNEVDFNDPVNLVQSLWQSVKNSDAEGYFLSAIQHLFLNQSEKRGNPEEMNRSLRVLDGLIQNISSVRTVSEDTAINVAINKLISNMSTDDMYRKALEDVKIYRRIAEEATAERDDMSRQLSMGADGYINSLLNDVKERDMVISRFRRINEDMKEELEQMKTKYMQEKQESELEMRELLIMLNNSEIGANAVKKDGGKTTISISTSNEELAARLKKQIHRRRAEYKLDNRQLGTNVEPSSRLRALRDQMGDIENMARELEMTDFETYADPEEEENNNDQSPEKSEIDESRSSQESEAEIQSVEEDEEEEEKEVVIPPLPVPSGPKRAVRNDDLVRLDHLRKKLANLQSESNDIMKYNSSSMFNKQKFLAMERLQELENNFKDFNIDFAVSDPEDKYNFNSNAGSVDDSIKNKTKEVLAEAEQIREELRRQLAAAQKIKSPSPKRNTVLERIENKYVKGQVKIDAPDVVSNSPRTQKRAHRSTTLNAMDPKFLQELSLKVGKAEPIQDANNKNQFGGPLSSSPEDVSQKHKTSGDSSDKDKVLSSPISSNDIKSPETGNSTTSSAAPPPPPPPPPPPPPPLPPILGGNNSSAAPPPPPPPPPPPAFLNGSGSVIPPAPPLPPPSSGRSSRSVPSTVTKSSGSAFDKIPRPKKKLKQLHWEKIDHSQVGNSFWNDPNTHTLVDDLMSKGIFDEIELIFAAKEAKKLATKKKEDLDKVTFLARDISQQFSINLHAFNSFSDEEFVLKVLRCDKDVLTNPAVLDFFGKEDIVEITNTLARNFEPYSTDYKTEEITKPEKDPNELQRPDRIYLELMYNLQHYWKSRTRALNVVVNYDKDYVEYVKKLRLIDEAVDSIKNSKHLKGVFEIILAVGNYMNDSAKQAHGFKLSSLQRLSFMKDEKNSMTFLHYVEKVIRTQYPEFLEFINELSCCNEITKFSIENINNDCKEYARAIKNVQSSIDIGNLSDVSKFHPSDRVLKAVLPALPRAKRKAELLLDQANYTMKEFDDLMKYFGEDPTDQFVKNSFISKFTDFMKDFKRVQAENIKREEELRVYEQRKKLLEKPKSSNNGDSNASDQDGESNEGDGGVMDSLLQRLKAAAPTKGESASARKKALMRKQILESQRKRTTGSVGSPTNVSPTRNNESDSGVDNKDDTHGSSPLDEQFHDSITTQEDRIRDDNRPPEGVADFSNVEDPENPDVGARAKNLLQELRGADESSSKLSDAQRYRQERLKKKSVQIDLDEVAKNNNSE
row,Variant,effect of a mutation on the interaction
1,E15A,disrupting interaction
